Reference: publication PMC8024369
Where “and” joins values, the source holds several entries; their conditions need not be identical. Equal entries are not always repeated.

Experiments:
[1] = target: rationally optimised SUWA (N22E/H86K mutant of SUWA, super WA20); assay: SEC-MALS; Superdex 75 Increase 10/300 GL, 20 °C, 20 mM HEPES pH 7.5, 150 mM NaCl, 5% glycerol; oligomeric number from the mass of each peak and the theoretical mass of the monomer
[2] = target: rationally optimised WA20 (N22A/H86K mutant of the de novo protein WA20); assay: as above

mass fraction of peak (i), dimer [1] | mass fraction of peak (ii), tetramer [1] | mass fraction of peak (iii), hexamer [1] | mass fraction of peak (iv), higher oligomers [1] | mass fraction of peak (i), dimer [2] | mass fraction of peak (ii), tetramer [2] | mass fraction of peak (iii), hexamer [2] | stoichiometry N [2] | Substance
64% | 18% | 7% | 11% | – | – | – | – | rationally optimised SUWA (N22E/H86K mutant of SUWA, super WA20)
– | – | – | – | 77% | 21% | 2% | 2 mer and 4 mer and 6 mer | rationally optimised WA20 (N22A/H86K mutant of the de novo protein WA20)
